Source: PMC5665922
“And” between values parts separate entries of the source, which are not always exact repeats. Equal values may be shown once.

B1: His-INTΔC15 (His-INT with 15 amino acids deleted at the C terminus) (domain or fragment)
chain: CIQHWQDAVPWTELLSLQTEDGFWKLTPELGLILNLNTNGLHSFLKQKGIQSLGVKGRECLLDLIATMLVLQFIRTRLEKEGIVFKSLMKMDDASISRNIPWAFEAIKQASEWVRRTEGQYPSICPRLELGNDWDSATKQLLGLQPI
B2: Histidine-tagged vault-interacting domain of vault poly(ADP-ribose)-polymerase (His-INT) (domain or fragment)
chain: CIQHWQDAVPWTELLSLQTEDGFWKLTPELGLILNLNTNGLHSFLKQKGIQSLGVKGRECLLDLIATMLVLQFIRTRLEKEGIVFKSLMKMDDASISRNIPWAFEAIKQASEWVRRTEGQYPSICPRLELGNDWDSATKQLLGLQPISTVSPLHRVLHYSQG

Columns and labels:
[1] = target: Histidine-tagged INT-interacting MVP domains (His-iMVP), major vault protein domains 3 to 5; assay: SPR; Biacore 3000, His-iMVP amine-coupled to CM5 (410, 1860 or 1240 RU), His-INT or variant injected, 25 °C, 50 mM PBS, 150 mM NaCl, pH 7.4; 1-to-1 Langmuir fit; apparent constants
[2] = target: Histidine-tagged INT-interacting MVP domains (His-iMVP), major vault protein domains 3 to 5; assay: SEC; His-iMVP and His-INT mixed at equimolar ratio (70 μM), overnight at 4 °C, Superdex 75 10/300 GL; band densities of peak fractions on SDS-PAGE

Binder | Kd [1] [µM] | T1/2 [1] [min] | koff [1] [s⁻¹] | kon [1] [M⁻¹ s⁻¹] | stoichiometry N [1] | stoichiometry N [2]
B1 | 1.8 | 9.4 | 0.00089 | 485 | 1 | 
B2 | 0.262 | 13.9 | 0.0006 | 2280 | 1 | 1 and 2
